Where two headings read alike, the source gives them in different places.
Columns and labels:
[1] = target: T1, human Argonaute-2 loaded with miR-122 (hAgo2:miR-122) (Homo sapiens, UniProt Q9UKV8 1-859); assay: EMSA
[2] = target: T1, human Argonaute-2 loaded with miR-122 …; assay: EMSA; remark: listed apart in the source

T1 sequence (Q9UKV8 whole entry): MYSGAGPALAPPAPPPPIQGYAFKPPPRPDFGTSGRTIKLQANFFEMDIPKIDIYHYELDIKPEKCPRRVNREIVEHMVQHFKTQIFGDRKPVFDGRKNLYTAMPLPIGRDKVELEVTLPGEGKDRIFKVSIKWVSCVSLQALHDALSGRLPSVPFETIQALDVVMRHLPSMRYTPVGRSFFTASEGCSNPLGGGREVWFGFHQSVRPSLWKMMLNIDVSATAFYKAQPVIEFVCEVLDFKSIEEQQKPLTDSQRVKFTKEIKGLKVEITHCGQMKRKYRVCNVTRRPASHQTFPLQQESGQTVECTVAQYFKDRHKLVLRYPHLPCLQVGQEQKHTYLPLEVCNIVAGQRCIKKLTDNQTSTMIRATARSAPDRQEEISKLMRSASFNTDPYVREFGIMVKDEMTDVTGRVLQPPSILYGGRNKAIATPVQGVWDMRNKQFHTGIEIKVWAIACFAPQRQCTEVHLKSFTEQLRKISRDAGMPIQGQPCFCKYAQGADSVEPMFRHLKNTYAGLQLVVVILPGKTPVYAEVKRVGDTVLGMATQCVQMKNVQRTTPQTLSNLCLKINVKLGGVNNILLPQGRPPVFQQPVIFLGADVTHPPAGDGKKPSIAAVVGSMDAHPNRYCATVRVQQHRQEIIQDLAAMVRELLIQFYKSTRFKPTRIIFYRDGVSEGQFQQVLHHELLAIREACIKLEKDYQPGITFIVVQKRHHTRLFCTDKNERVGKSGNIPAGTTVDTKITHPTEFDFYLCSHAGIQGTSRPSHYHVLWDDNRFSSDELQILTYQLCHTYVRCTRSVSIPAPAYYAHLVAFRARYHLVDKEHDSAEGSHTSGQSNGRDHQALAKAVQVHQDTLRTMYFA

B1: miR-122 guide / HCV S2p3,4 1-42 target (mixed)
RNA 1: UGGAGUGUGACAAUGGUGUUUGU
RNA 2: ACCUGCCCCUAAUAGGGGCGACACUCCGCCAUGAAUCACAGC
modifications: 5'-phosphate on miR-122 guide
[1]
  Kd: 0.063 ± 0.01 nM

B2: miR-122 guide / HCV 1-42 WT target (mixed)
RNA 1: UGGAGUGUGACAAUGGUGUUUGU
RNA 2: ACCUGCCCCUAAUAGGGGCGACACUCCGCCAUGAAUCACUCC
modifications: 5'-phosphate on miR-122 guide
[2]
  Kd: 0.25 ± 0.031 nM

Source: publication PMC6547439
